What was measured:
[1] = target: T1, SARS CoV-2 spike trimer protein from the parental Wuhan-Hu-1 isolate (recombinant stabilized extracellular … (SARS-CoV-2 (Wuhan-Hu-1))); assay: ELISA on coated spike protein, anti-human Fc-HRP, OD450
T1 construct: also called Spike protein

[2] = target: T1, SARS CoV-2 spike trimer protein from …; assay: ELISA on coated recombinant stabilized spike protein, panel WT, OD 450
[3] = target: T1, SARS CoV-2 spike trimer protein from …; assay: ELISA, spike coated, chimeric IgG1

Binder | EC50 (read off the curve) [1] [nM] | EC50 (read off the curve) [2] [nM] | EC50 [3] [nM]
R2G3 chimeric bovine-human IgG1 (ultralong CDR3) (antibody, also called 2G3 IgG; R2-G3 IgG) VH: QVQLRESGPSLVKPSQTLSLTCAASGFSLSDKAVGWVRRAPGKALEWLGSIDTGGSTGYNPGLKSRLSITKDNSKSQVSLSISSVTSEDSATYYCATVHQKTAEGDKTCPDGYEHTCGCIGGCGCKRSACIGALCCQASLGGWLSDGETYTYEFHVDTWGQGLVVTVSS VL: QAVLNQPSSVSGSLGQRVSITCSGSSSNVGNGYVSWYQLIPGSAPRTLIYGDTSRASGVPDRFSGSRSGNTATLTISSLQAEDEADYFCASAEDSSSNAVFGSGTTLTVL | ~0.01 | ~0.4 | –
R2F12 chimeric bovine-human IgG1 (ultralong CDR3) (antibody, also called RR2F12) VH: QVQLRESGPSLVKPSQTLSLTCTVSGFSLSDKAVGWVRRAPGKALEWLGSIDTGGMTGYNPGLKSRLSITKDNSKSQVSLSVNSVTTEDSATYYCATVDQKTKNACPDDFDYRCSCIGGCGCARKGCVGPLCCRSDLGGYLTDSPAYIYEWYIDLWGQGLLVTVSS VL: QAVLNQPSSVSGSLGQRVSITCSGSSSNVGNGYVSWYQLIPGSAPRTLIYGDTSRASGVPDRFSGSRSGNTATLTISSLQAEDEADYFCASAEDSSSNAVFGSGTTLTVL | ~0.02 | ~0.3 | 0.05
RBD F4 chimeric bovine-human IgG1 (antibody, V domains shown) VH: QVQLRESGPSLVKPSQTLSLTCTVSGFSLSSNGVVWVRQAPGKALEWLGDICSTGGTSFNPALKSRLSIAKDNSKSQVSLSVRSVTPEDTATYYCARSRGYDCYANVDALDYVDAWGQGLLVTVSS VL: QAVLNQPSSVSGSLGQRVSITCSGSSSNVGNGYVSWYQLIPGSAPRTLIYGDTSRASGVPDRFSGSRSGNTATLTISSLQAEDEADYFCASAEDSSSNAVFGSGTTLTVL | – | – | 0.03
R2B1 chimeric bovine-human IgG1 (antibody, V domains shown) VH: QVQLRESGPSLVKPSQTLSLTCTVSGFSLSDNNVGWVRQAPGKALEWLGVMHNDGNKGYNPALKSRLSITKDSSKSQVSLSLSSVTSEDTATYYCTRDNARCDSWTYDSCDTWYRNSWHVDAWGQGLLVTVSS VL: QAVLNQPSSVSGSLGQRVSITCSGSSSNVGNGYVSWYQLIPGSAPRTLIYGDTSRASGVPDRFSGSRSGNTATLTISSLQAEDEADYFCASAEDSSSNAVFGSGTTLTVL | – | – | 0.37
R2D6 chimeric bovine-human IgG1 (antibody, V domains shown) VH: QVQLRESGPSLVKPSQTLSLTCTTSGFSLSSYAVGWVRQAPGKALEWVGDIDYVGNTDYNPALKSRLSITKDNSKSQVSLVVSSVTAEDAATYYCAKYSGAYAYAACNYYGWRCAWESYIDAWGQGLLVTVSS VL: QAVLNQPSSVSGSLGQRVSITCSGSSSNVGNGYVSWYQLIPGSAPRTLIYGDTSRASGVPDRFSGSRSGNTATLTISSLQAEDEADYFCASAEDSSSNAVFGSGTTLTVL | – | – | 0.41
R2C3 (R5C1) chimeric bovine-human IgG1 (ultralong CDR3) (antibody, also called SA-R2C3) VH: QVQLRESGPSLVKPSQTLSLTCTASGFSLSDKPVGWVRQAPGKPLEWLGSIDTAENTGYNPGLKSRLSITKDNSKSQVSLSLSSVTTEDSATYYCATVHQKTRKEKSCPDGYLYSSNTGRGYDCGVWTCRRVGGEFCSATGDWTSPSEEDFYEFYVDTWGQGAPVTVSS VL: QAVLNQPSSVSGSLGQRVSITCSGSSSNVGNGYVSWYQLIPGSAPRTLIYGDTSRASGVPDRFSGSRSGNTATLTISSLQAEDEADYFCASAEDSSSNAVFGSGTTLTVL | – | ~0.3 | 0.39
RBD C6 chimeric bovine-human IgG1 (antibody, V domains shown) VH: QVQLRESGPSLVKPSQTLSLTCTVSGFSLSSNGVVWVRQAPGRPLEWLGDICSNGGTSFNPALKSRLSIAKDNSESQVSLTVRSVTPEDTATYYCARSRGYDCYAYVYALDTVDAWGQGLLVTVSS VL: QAVLNQPSSVSGSLGQRVSITCSGSSSNVGNGYVSWYQLIPGSAPRTLIYGDTSRASGVPDRFSGSRSGNTATLTISSLQAEDEADYFCASAEDSSSNAVFGSGTTLTVL | – | – | 0.03
SR3A3 chimeric bovine-human IgG1 (ultralong CDR3) (antibody) VH: QVQLRESGPSLVKPSQTLSLTCTISGFSLSSYAVLWVRQAPGKPLEWLGSIDTAENTGYNPGLKSRLSITKDNSKSQVSLSVSSVTTEDSATYYCATVHQKTRKEKNCPDGYIYSSNITSGFDCGVWICRRVGSAFCSRTGDYTSPTELDIYEFYVEGWGQGVPVTVSS VL: QAVLNQPSSVSGSLGQRVSITCSGSSSNVGNGYVSWYQLIPGSAPRTLIYGDTSRASGVPDRFSGSRSGNTATLTISSLQAEDEADYFCASAEDSSSNAVFGSGTTLTVL | – | – | 0.037
RBD A2 chimeric bovine-human IgG1 (antibody, V domains shown) VH: QVQLRESGPSLVKPLQILSLTCTVSGFSLSSNGVVWVRQAPGKALEWLGDICSTGGTSFNPALKSRLSIAKDNSKSQVSLSVRSVTPEDTATYYCARSRGYDCYANVDALDYVDAWGQGLLVTVSS VL: QAVLNQPSSVSGSLGQRVSITCSGSSSNVGNGYVSWYQLIPGSAPRTLIYGDTSRASGVPDRFSGSRSGNTATLTISSLQAEDEADYFCASAEDSSSNAVFGSGTTLTVL | – | – | 0.024

Source: US20260184766A1 (APPLIED BIOMEDICAL SCIENCE INSTITUTE, published 2026)
